# Measurements as given in US20260049134A1 (UNIVERSITY OF FLORIDA RESEARCH FOUNDATION, published 2026).
# Substitutions are numbered along the chain they refer to. Names may count otherwise.
# T1: CADM1, endogenous in H929 multiple myeloma cells (human, UniProt Q9BY67 45-442)
# T1 construct: Native protein on H929 cells (flow cytometry, siRNA knockdown) and in H929 lysates (IP/MS); RPMI-8226 cells were used for sorting with HW-97; also called IGSF4A
# T1 sequence: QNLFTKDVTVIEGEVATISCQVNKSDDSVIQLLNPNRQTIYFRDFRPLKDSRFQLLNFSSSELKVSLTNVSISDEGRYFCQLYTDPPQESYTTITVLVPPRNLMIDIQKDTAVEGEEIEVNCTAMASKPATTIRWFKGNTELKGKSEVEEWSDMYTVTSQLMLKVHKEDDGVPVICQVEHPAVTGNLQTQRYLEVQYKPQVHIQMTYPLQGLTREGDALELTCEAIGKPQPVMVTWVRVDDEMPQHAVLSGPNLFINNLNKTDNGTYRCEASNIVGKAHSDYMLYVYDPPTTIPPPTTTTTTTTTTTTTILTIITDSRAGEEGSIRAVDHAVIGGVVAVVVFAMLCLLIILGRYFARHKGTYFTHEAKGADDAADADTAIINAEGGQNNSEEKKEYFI
# B1: HW-97 chimeric rabbit-human IgG1 LA/LA/PG (antibody, V domains shown)
# VH: QKQLVESGGRLVTPGTPLTLTCTVTGIDLSSHGMSWVRQAPGKGLEWIGVIYPSGSTWYASWARGRFTISKTSTTVDLKMTSLTTEDTATHFCARGDVGGADNNIWGPGTLVTVSS
# VL: SFVLTQPASVQVDLGQTVSLTCTAETLSRSYASWYQQKPGQAPVLLIYRDTSRPSGVPDRFSGSSSGNTATLTISGAQAGDEADYYCATSDGSGSSYQYVFGGGTQLTVTG
# notes: Fc-silenced (L234A/L235A/P329G) IgG1, lambda; Alexa Fluor 647-labeled in single-step flow cytometry; Prototype of cluster C-97
# B2: HW-101 chimeric rabbit-human IgG1 LA/LA/PG (antibody, V domains shown)
# VH: QEQLVESGGRLVTPGTPLTLTCKASGFSLGKYDMSWVRQAPGKGLEWIGTIYAGSGSTWYASWAKGRFTISKTSTTVDLKMTSLTTEDTATYFCARDFLGVNSIWGPGTLVTISS
# VL: B1 VL with D13N, E25D, G40D, Y48H, S65N, S96N, Y97F, Q98H, Y99F
# notes: Fc-silenced (L234A/L235A/P329G) IgG1, lambda; Alexa Fluor 647-labeled in single-step flow cytometry; Cluster C-97
# B3: TH9-0022 (antibody, human IgG1, kappa, L234A L235A, V domains shown)
# VH: QSLEESGGRLVTPGTPLTLTCTVSGFSLSSYAMNWVRQAPGKGLEWIGIINSYGSTYYASWAKGRFTISKTSTTVDLKITSPTTEDTATYFCARVTYDSYGYGYAPYGMDLWGPGTLVTVSS
# VL: LVMTQTPSSTSNAVGGTVTIKCQASQSIGNVLAWYQQKPGQPPKLLIYAASTLASGVPSRVGGSRSGTEYTLTISGVQREDAATYYCLGSDSDSDIAFGGGTELEILR
# notes: also called TH9-022; negative control
# B4: HW-113 chimeric rabbit-human IgG1 LA/LA/PG (antibody, V domains shown)
# VH: QKQLVESGGGLVQPGGSLTLTCTVSGFSLNKYYMGWFRQAPGKGLEWIGVISRSGDTYYSSWAKGRFTISKASTTVDLRITSPTTEDTATYFCARDASSPGFHGDRLDLWGQGTLVTVSS
# VL: B1 VL with D13N, E25D, S93I, S96N, Q98L, Y99W
# notes: Fc-silenced (L234A/L235A/P329G) IgG1, lambda; Alexa Fluor 647-labeled in single-step flow cytometry
# B5: TH9-0022 (antibody, human IgG1, kappa, L234A L235A, V domains shown)
# VH: B3 VH
# VL: B3 VL
# notes: also called TH9-022; negative control IgG1
# B6: HW-42 chimeric rabbit-human IgG1 LA/LA/PG (antibody, V domains shown)
# VH: QSVKESEGGLFKPADTLTLTCTVSGFSLSSNEISWVRQAPGEGLEYIGIIDTGGRAYYAVWARSRSTITRNTNLNTVTLKMTSLTAADTATYFCARGGVDTEWYAFSSWGPGTLVTVPS
# VL: B1 VL with D13N, E25D, S30R, Y48F, N68D, S96N
# notes: Fc-silenced (L234A/L235A/P329G) IgG1, lambda; Alexa Fluor 647-labeled in single-step flow cytometry; Cluster C-1
# B7: HW-17 chimeric rabbit-human IgG1 LA/LA/PG (antibody, V domains shown)
# VH: QSLGESRGRLVTPDETLTLTCTVSGIDLSSNAMSWVRQAPGEGLEWIGTINTGGRAYYASWAKGRFTISRTSTTVDLKMTSLTTEDTATYFCARERYSDGRAYDIWGPGTLVTISS
# VL: B1 VL with D13N, E25D, S30R, R49T, T51S, S52N, V57I, S90D, S96I
# notes: as for B6
# B8: HW-1 chimeric rabbit-human IgG1 LA/LA/PG (antibody, V domains shown)
# VH: QSLEESGGGLFKPTDTLTLTCTASGFSLGSSYAISWVRQAPGKELEWIGTIDSGRAYYARWAKSRSTITRNTNENTVTLKMTSLTAADTATYFCARDLIPTYSQDIWGPGTLVTISS
# VL: B1 VL with D13N, E25D, S30R, S95N, G111S
# notes: Fc-silenced (L234A/L235A/P329G) IgG1, lambda; Alexa Fluor 647-labeled in single-step flow cytometry; Prototype of cluster C-1
# B9: HW-25 chimeric rabbit-human IgG1 LA/LA/PG (antibody, V domains shown)
# VH: QSLEESGGRLVTPGTPLTLTCTVSGFSLSSYAMGWVRQAPGKGLEWIGIIDSRGSTYYATWAKGRFTISKTSTTVDLKITSPTTEDTATYFCAREDSYYYDSFNLWGPGTLVTVSS
# VL: B1 VL with D13N, E25D, S30R, Y99C
# notes: as for B6
# B10: HW-70 chimeric rabbit-human IgG1 LA/LA/PG (antibody, V domains shown)
# VH: QSLEESGGRLVTPGTPLTLTCTVSGFSLSSNAMSWVRQAPGKGLEWIGTIDGYGYTYYASWAKGRFTVSKTSTTVDLKITSPTTEDTATYFCAREIYLGSNFWGPGTLVTISS
# VL: B1 VL with D13N, E25D, S30R, S90A, Y99F
# notes: as for B6
# Target: T1, CADM1, endogenous in H929 multiple …
# Assay: flow cytometry, H929 + PTPRG siRNA; None 2.13
row,Binder,Cells stained (%)
1,B1,94.8
2,B2,85.3

# Target: T2, ICAM1, endogenous in H929 multiple myeloma cells (human, UniProt P05362 28-532)
# T2 construct: Native protein on H929 cells (flow cytometry, siRNA knockdown) and in H929 lysates (IP/MS); also called CD54
# T2 sequence (P05362 28-532 limits assumed): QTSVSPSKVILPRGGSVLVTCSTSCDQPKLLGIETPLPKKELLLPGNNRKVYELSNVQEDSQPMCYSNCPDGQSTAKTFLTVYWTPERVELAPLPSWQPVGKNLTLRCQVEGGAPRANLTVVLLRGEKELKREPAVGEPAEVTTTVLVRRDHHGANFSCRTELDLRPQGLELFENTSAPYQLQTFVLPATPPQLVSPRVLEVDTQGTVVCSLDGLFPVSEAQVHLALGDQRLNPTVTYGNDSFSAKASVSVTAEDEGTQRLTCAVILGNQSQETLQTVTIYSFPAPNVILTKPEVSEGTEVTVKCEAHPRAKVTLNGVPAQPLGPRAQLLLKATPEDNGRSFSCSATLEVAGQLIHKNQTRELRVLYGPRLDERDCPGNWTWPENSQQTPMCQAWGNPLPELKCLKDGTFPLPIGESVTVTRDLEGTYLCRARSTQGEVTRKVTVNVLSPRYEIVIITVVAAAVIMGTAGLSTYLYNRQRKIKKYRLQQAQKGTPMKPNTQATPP
# Assay: flow cytometry, H929 + NT Green siRNA; None 416
row,Binder,mAb binding (MFI)
1,B3,483
2,B4,51900

# Target: T1, CADM1, endogenous in H929 multiple …
# Assay: flow cytometry, IgG1 on H929 cells
# Experimental: Staining protocol. Cells were harvested (5×10⁴ cells per sample), washed once with phosphate-buffered saline (PBS) at RT, and a second time with ice-cold FACS buffer (PBS, 0.5% BSA, 2 mM EDTA, 0.1% NaN₃). Cells were stained in 50 μL of primary antibody for 30 min on ice, washed twice with 100 μL FACS buffer, stained with 50 μL of diluted secondary antibody, washed two more times in FACS, and then resuspended in 50 μL FACS buffer. Samples were acquired on an Accuri C6 Plus or a BD FACSCanto II flow cytometer (both from BD Biosciences). Data were analyzed using FlowJo version 10 software. Primary antibodies: Fab (10 μg/mL), IgG1 (0.1 to 50 μg/mL), or 25 μL polyclonal Fabs from periplasmic extracts. Polyclonal Fabs were produced by diluting bacterial stocks by a factor of 100 in autoinduction media and incubating overnight to induce expression as previously described. […] Viability stains: DAPI (Cell Signaling Technology) or SYTOX AADvanced Dead Cell Stain (Thermo Fisher Scientific). Labeling: The panel of chimeric rabbit/human IgG1s was labeled using the Alexa Fluor 647 Labeling Kit (Thermo Fisher Scientific, #A20173) to facilitate single-step staining. Competition: Unlabeled IgG1s were added at saturating concentrations of 60 μg/mL to block the target receptors, incubating on ice for 30 min, followed by the addition of an equal volume of the Alexa Fluor 647 labeled antibody at 2 μg/mL, and the mixture was incubated on ice for another 30 min.
row,Binder,antibody-bound positive cells (%)
1,B5,2.7
2,B1,98.6
3,B2,95.3

# Target: T1, CADM1, endogenous in H929 multiple …
# Assay: flow cytometry, H929 + vehicle; None 2.74
row,Binder,Cells stained (%)
1,B3,2.62
2,B1,98.4
3,B2,94.3

# Target: T3, PTPRG, endogenous in H929 multiple myeloma cells (human, UniProt P23470 20-1445)
# T3 construct: Native protein on H929 cells (flow cytometry, siRNA knockdown) and in H929 lysates (IP/MS); also called phosphatase receptor type γ
# T3 sequence (P23470 20-1445 limits assumed): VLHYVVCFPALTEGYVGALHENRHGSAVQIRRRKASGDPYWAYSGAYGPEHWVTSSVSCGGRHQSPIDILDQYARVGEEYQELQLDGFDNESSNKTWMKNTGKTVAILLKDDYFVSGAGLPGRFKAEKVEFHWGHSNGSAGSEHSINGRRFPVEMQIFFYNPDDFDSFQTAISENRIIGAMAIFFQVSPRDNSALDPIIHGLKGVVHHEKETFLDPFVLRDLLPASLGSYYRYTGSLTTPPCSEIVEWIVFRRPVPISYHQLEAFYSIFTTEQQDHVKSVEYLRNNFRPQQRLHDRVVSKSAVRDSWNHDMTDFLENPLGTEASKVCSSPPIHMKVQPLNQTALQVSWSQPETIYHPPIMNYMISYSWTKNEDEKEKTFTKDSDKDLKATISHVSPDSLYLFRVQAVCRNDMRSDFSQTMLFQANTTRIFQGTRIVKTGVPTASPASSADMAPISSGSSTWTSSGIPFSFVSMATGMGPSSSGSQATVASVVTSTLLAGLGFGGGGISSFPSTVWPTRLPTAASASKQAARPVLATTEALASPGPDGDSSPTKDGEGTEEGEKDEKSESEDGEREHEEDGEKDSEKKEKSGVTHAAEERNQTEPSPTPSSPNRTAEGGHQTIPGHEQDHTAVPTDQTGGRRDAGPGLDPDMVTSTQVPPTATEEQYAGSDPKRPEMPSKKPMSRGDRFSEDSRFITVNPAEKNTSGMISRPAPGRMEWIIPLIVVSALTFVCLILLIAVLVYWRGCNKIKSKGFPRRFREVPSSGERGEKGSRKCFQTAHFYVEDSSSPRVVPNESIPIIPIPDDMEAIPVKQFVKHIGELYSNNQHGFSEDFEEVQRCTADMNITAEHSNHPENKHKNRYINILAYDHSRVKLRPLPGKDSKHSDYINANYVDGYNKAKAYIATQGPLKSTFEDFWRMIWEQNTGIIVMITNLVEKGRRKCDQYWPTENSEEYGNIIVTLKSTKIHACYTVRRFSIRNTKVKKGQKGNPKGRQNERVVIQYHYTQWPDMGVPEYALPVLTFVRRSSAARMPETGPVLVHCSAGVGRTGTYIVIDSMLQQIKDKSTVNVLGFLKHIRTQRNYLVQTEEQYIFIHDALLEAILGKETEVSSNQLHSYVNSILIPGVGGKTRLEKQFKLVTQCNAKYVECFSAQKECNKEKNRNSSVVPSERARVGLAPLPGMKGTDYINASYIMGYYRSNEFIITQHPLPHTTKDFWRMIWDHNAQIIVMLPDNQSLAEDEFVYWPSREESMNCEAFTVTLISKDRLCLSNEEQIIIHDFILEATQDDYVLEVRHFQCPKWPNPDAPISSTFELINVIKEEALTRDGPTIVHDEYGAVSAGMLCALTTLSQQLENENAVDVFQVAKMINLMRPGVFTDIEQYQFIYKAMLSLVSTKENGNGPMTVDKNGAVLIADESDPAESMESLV
# Assay: flow cytometry, H929 + PTPRG siRNA (target knocked down); None 490
row,Binder,mAb binding (MFI)
1,B6,649
2,B7,1160
3,B8,1140
4,B9,839
5,B10,840
